In publication PMC3701320, “Crystal Structures of Malonyl-Coenzyme A Decarboxylase Provide Insights into Its Catalytic Mechanism and Disease-Causing Mutations” (Structure(London, England:1993), 2013):

Legend:
[1] = molecular target: Cupriavidus metallidurans malonyl-CoA decarboxylase (CmMCD), residues 57-473 (Cupriavidus metallidurans); assay: not stated; oligomeric state of CmMCD in solution; method not given
[2] = molecular target: Rhodopseudomonas palustris malonyl-CoA decarboxylase (RpMCD), residues 8-451 (Rhodopseudomonas palustris); assay: multiangle static light scattering; oligomeric state in solution; data not shown
[3] = molecular target: the molecule itself; assay: SEC + AUC; analytical gel filtration on Superdex 200 in 10 mM HEPES pH 7.5, 150 mM NaCl; sedimentation velocity at 30,000 rpm, 4 °C, 50 μM HsMCD in the same buffer; oligomeric state in solution
[4] = molecular target: the molecule itself; assay: multiangle static light scattering; oligomeric state in solution; data not shown

Cupriavidus metallidurans malonyl-CoA decarboxylase (CmMCD), residues 57-473 (enzyme)
stoichiometry N [1]: 2

Rhodopseudomonas palustris malonyl-CoA decarboxylase (RpMCD), residues 8-451 (enzyme)
stoichiometry N [2]: 4

B1: Wild-type human malonyl-coenzyme A decarboxylase (HsMCD), residues 40-491 (enzyme, UniProt O95822 40-491, looked up)
chain: MDELLRRAVPPTPAYELREKTPAPAEGQCADFVSFYGGLAETAQRAELLGRLARGFGVDHGQVAEQSAGVLHLRQQQREAAVLLQAEDRLRYALVPRYRGLFHHISKLDGGVRFLVQLRADLLEAQALKLVEGPDVREMNGVLKGMLSEWFSSGFLNLERVTWHSPCEVLQKISEAEAVHPVKNWMDMKRRVGPYRRCYFFSHCSTPGEPLVVLHVALTGDISSNIQAIVKEHPPSETEEKNKITAAIFYSISLTQQGLQGVELGTFLIKRVVKELQREFPHLGVFSSLSPIPGFTKWLLGLLNSQTKEHGRNELFTDSECKEISEITGGPINETLKLLLSSSEWVQSEKLVRALQTPLMRLCAWYLYGEKHRGYALNPVANFHLQNGAVLWRINWMADVSLRGITGSCGLMANYRYFLEETGPNSTSYLGSKIIKASEQVLSLVAQFQKNS
notes: Malonyl-CoA decarboxylase (MCD, E.C. 4.1.1.9), human, residues 40-491, corresponding to the mature mitochondrial form; The His6-tag is TEV-cleavable (vector pNIC28-Bsa4, GenBank EF198106); also called human MCD; Wild-type HsMCD
stoichiometry N [3]: 4

B2: HsMCD E58A/K59A/E278A/E279A/K280A quintuple surface entropy reduction (SER) mutant, residues 40-491 (enzyme, human, UniProt O95822 40-491, looked up)
chain: MDELLRRAVPPTPAYELRAATPAPAEGQCADFVSFYGGLAETAQRAELLGRLARGFGVDHGQVAEQSAGVLHLRQQQREAAVLLQAEDRLRYALVPRYRGLFHHISKLDGGVRFLVQLRADLLEAQALKLVEGPDVREMNGVLKGMLSEWFSSGFLNLERVTWHSPCEVLQKISEAEAVHPVKNWMDMKRRVGPYRRCYFFSHCSTPGEPLVVLHVALTGDISSNIQAIVKEHPPSETAAANKITAAIFYSISLTQQGLQGVELGTFLIKRVVKELQREFPHLGVFSSLSPIPGFTKWLLGLLNSQTKEHGRNELFTDSECKEISEITGGPINETLKLLLSSSEWVQSEKLVRALQTPLMRLCAWYLYGEKHRGYALNPVANFHLQNGAVLWRINWMADVSLRGITGSCGLMANYRYFLEETGPNSTSYLGSKIIKASEQVLSLVAQFQKNS
notes: Malonyl-CoA decarboxylase (MCD), human, residues 40-491 (mature mitochondrial form) with five alanine substitutions for surface entropy reduction; The His6-tag is TEV-cleavable; Crystallised with a dimer in the asymmetric unit; the tetramer is generated through a crystallographic 2-fold axis; also called Quintuple SER mutant; SER quintuple mutant
binding result [3]: binds

B3: Agrobacterium vitis malonyl-CoA decarboxylase (AvMCD), residues 1-448 (enzyme)
chain: MAGTSFLSDLLSGVTERGRALLFSGSKARDRVVDTDIETLCEMLLSSRGEASGMAIAAEILDRWSRFNAAEAVQFLHMLSDRFGAEAAALDKAIDAYRTDKSPMAVIALHNAAEPRRQELLRRLNLAPNGTQKLVRMRERLLETKEDRADLGAVDTDFAHLFSSWFNRGFLTLQPIDWTTPAHILEKIIKYEAVHEIAGWEELRRRLAPADRRCFAFFHPRLRDDPLVFVEVALTRSIPSAIADVLDESRDHIGADTATTAVFYSISNCQDGLRGISFGNFLIKQVVEDLRRDLPGLKEFVTLSPVPGFARWISKIRDPKSGFPLSPEDRNTLVLLDDPTWPEDKARADAVERILLPLAARYFITERTPDNRPVDPVARFHLGNGARLERLNFLGDRSVKAMRQAHGLMVNYLYKLEDIETNHEALAQRGEVAASPAVKALQGKIEPI
modifications: selenomethionyl (Se-Met labeled) protein
stoichiometry N [4]: 4
